Columns and labels:
[1] = target: thrombin (Homo sapiens (Human)) (UniProt P00734); test: cell-based or functional assay
protein C = protein C (UniProt P04070)

| clotting time of fibrinogen by thrombin with thrombomodulin at saturating concentrations [1] [min] | Substance | enzyme-mediated conversion of protein C into activated protein C (aPC), thrombin in the absence of TM (protein C) |
| --- | --- | --- |
| < 305 | full-length thrombomodulin (from UniProt P07204 19-575) (receptor) |  |
|  | thrombin | minimal activated protein C (aPC) activity was generated |

Source: patent US20180127735A1
